Results: patent publication US20170066831A1 (Janssen / Centocor, published 2017)
Numbering of substitutions follows the chain as printed.

T1: human ST2L extracellular domain with C-terminal His6 tag (human, UniProt Q01638 19-328)
T1 construct: also called huST2L-ECD; ST2L-ECD
T1 sequence: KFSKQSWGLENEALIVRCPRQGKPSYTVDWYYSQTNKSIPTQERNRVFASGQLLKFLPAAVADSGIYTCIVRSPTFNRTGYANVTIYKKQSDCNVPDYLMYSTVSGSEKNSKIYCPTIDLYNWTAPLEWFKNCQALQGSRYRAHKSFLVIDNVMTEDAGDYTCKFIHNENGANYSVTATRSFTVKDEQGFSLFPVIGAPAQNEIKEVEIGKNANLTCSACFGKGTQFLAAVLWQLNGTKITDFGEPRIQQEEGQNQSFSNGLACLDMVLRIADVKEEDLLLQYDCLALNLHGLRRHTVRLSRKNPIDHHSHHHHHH

T2: cynomolgus (Macaca fascicularis) ST2L extracellular domain with C-terminal His6 tag (Macaca fascicularis (cynomolgus), UniProt Q01638 19-321 (human entry))
T2 construct: also called cyno ST2L-ECD; cynoST2L-ECD
T2 chain: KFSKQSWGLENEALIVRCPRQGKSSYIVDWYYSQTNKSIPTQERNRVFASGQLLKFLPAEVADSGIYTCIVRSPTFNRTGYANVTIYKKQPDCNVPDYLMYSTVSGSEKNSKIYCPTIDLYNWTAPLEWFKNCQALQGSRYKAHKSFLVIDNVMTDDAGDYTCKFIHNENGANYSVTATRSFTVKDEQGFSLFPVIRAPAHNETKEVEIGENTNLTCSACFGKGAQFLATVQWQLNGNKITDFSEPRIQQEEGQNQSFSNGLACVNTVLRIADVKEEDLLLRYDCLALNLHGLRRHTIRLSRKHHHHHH

T3: human ST2L, full length, on cells (human, UniProt Q01638 19-556)
T3 sequence: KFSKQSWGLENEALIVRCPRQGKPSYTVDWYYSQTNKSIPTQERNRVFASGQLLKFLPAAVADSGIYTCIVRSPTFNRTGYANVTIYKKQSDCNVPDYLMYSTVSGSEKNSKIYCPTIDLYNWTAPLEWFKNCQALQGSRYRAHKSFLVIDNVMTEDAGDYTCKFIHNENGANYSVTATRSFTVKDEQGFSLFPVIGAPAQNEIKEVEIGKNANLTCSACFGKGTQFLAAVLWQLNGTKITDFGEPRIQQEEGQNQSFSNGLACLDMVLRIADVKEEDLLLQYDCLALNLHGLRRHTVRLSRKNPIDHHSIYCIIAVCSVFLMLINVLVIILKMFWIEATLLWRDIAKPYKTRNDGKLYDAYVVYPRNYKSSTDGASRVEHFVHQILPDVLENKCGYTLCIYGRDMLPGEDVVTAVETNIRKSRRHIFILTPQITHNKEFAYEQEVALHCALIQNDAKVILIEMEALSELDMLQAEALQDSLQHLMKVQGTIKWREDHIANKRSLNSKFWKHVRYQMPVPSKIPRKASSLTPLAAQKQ

T4: mouse ST2L extracellular domain (mouse, UniProt P14719 28-326)
T4 construct: also called mouse ST2L-ECD; muST2L-ECD
T4 sequence: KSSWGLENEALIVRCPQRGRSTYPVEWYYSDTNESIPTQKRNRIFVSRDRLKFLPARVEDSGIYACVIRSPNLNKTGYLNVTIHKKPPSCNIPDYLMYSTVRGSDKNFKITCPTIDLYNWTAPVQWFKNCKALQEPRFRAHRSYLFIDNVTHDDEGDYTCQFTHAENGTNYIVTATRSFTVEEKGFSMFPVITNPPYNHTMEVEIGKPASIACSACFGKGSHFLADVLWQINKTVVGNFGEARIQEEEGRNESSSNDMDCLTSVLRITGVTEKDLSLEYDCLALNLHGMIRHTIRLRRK

B1: STLM62 (antibody, human IgG2, V domains shown)
VH: EVQLQQSVAELVRPGASVKLSCTASAFNIKDDYMHWVKQRPEQGLEWIGRIDPAIGNTEYAPKFQDKATMTADTSSNTAYLQLSSLTSEDTAVYYCALGDFYAMDYWGQGTSVTVSS
VL: ETTVTQSPASLSVATGEKVTIRCITNTDIDDVIHWYQQKPGEPPKLLISEGNTLRPGVPSRFSSSGYGTDFVFTIENTLSEDVADYYCLQSDNMLTFGAGTKLELK
notes: Mouse hybridoma C2494 cloned into human IgG2 background (STLM62); also called C2494
B2: C2494 Fab (Fab, V domains shown)
VH: B1 VH
VL: B1 VL
B3: C2494 Fab with D101aA (Chothia) substitution in VH (Fab, V domains shown)
VH: B1 VH with D105A
VL: B1 VL
B4: STLM15 (antibody, human IgG2, V domains shown)
VH: EVQLQESGPGLVKPSQSLSLTCTVTGFSITSDYAWNWIRQFPGSKLEWMGFISYSGDTSFNPSLKSRISVTRDTSKNQFFLQLNSVTTEDTATYYCASYDGYSFDYWGQGTTLTVSS
VL: DIVLTQSPASLAISLGQRATISCRASKSVSTSGSSYMFWYQQKPGQPPKLLIYLASNLESGVPARFSGSGSGTDFTLNIHPVEEEDAAAYYCQHSREIPYTFGGGTKLEIK
notes: Mouse hybridoma C2244 cloned into human IgG2 background (STLM15); also called C2244
B5: CNTO3914 (antibody, mouse IgG1, V domains shown)
VH: EVQLVESGGGLLQPGRSLKLSCTASGFIFSHYGMAWVRQAPTKGLEWVSSIITDGTSTYYRDSVKGRFTISRDNAKNTQYLQMDSLRSEDTATYYCARQSDDYFDYWGQGVMVTVSS
VL: DVVLTQTPVSLSVTLGDQASISCKSSQSLEYSDGDSYLEWYLQKPGQSPQLLIYGVSNRFSGVPDRFIGSGSGTDFTLKISRVEPEDLGVYYCFQATHDPFTFGSGTKLEIK
notes: Rat hybridoma C1999 V regions cloned into mouse IgG1 background; also called C1999
B6: ST2M49 (antibody, V domains shown)
VH: EVQLVQSGAEVKKPGESLKISCKGSGYSFTSYWIGWVRQMPGKGLEWMGIIYPGDSYTRYSPSFQGQVTISADKSISTAYLQWSSLKASDTAMYYCARIGGMFDYWGQGTLVTVSS
VL: EIVLTQSPATLSLSPGERATLSCRASQSVANALAWYQQKPGQAPRLLIYKASNRATGIPARFSGSGSGTDFTLTISSLEPEDFAVYYCQQYYGWPITFGQGTKVEIK
notes: Phage-derived Fab converted to IgG
B7: STLM189 (antibody, V domains shown)
VH: QVQLVQSGAEVKKPGASVKVSCKVSAFNIKDDYMHWVRQAPGKGLEWMGRIDPAIGNTEYAPKFQDRVTMTEDTSTDTAYMELSSLRSEDTAVYYCATGDFYAMDYWGQGTLVTVSS
VL: EIVMTQSPATLSVSPGERATLSCITNTDIDDVIHWYQQKPGQAPRLLIYEGNTLRPGIPARFSGSGSGTEFTLTISSLQSEDFAVYYCLQSDNMLTFGQGTKLEIK
notes: C2494 HFA mAb: VH STLH195 + VL STLL278 (L2)
B8: ST2M51 (antibody, V domains shown)
VH: QVQLVQSGAEVKKPGSSVKVSCKASGGTFSSYAISWVRQAPGQGLEWMGGIIPIFGTANYAQKFQGRVTITADESTSTAYMELSSLRSEDTAVYYCARDTPQLDYWGQGTLVTVSS
VL: not shown
notes: as for B6

Legend:
[1] = target: T1, human ST2L extracellular domain with …; test: SPR, mAb captured, ST2L-ECD in solution
[2] = target: T2, cynomolgus (Macaca fascicularis) ST2L …; test: SPR, mAb captured, ST2L-ECD in solution
[3] = target: T3, human ST2L, full length, on cells; test: cell-based or functional assay
[4] = target: T1, human ST2L extracellular domain with …; test: MSD competition on coated ST2L-ECD; 30 nM sulfo-tag labeled C2244 Fab displaced by unlabeled competitor
Procedure: Competition binding assays were performed to evaluate different binding epitope groups for anti-ST2L mAbs. 5 μl (10 μg/ml) of ST2L-ECD protein was coated on MSD HighBind plate (Meso Scale Discovery, Gaithersburg, Md.) per well for 2 hr at room temperature. One-hundred and fifty microliters of 5% MSD Blocker A buffer (Meso Scale Discovery, Gaithersburg, Md.) was added to each well and incubated for 2 hr at room temperature. Plates were washed three times with 0.1 M HEPES buffer, pH 7.4, followed by the addition of the mixture of the MSD fluorescence dye (sulfo tag, NHS ester) labeled individual anti-ST2L antibody with different competitors. Labeled antibody, 10 or 30 nM, was incubated with increasing concentrations of competitor antibodies, from 1 nM to 2 or 5 μM, and then added to the designated wells in a volume of 25 μL mixture. After 2-hour incubation with gentle shaking at room temperature, plates were washed 3 times with 0.1M HEPES buffer (pH 7.4). MSD Read Buffer T was diluted with distilled water (4-fold) and dispensed at a volume of 150 μL/well and analyzed with a SECTOR Imager 6000.

[5] = target: T1, human ST2L extracellular domain with …; test: RLB ELISA: biotinylated IL-33 on coated huST2L-ECD, antibody titrated; tested as a hybridoma
[6] = target: T1, human ST2L extracellular domain with …; test: ProteOn SPR, mAb captured, ST2L-ECD in solution
Procedure: (§1) The affinities were analyzed by ProteOn. The experiments were performed at 25° C. using ProteOn's PBS-T-E buffer (PBS, 0.005% P20 and 3 mM EDTA) as running buffer. […] Mab capture was followed by injection of ST2L-ECD from 0.024-15 nM (5-fold dilutions) for 4 min (200 μL at 50 μL/min). The dissociation was monitored for 30 minutes for all reaction. Regeneration was performed using two 15 sec pulses of 10 mM glycine pH1.5. The data was fitted to a 1:1 with baseline drift model.
(§2) Association rates for the samples are fast, the langmuir with mass transfer model was used for curve fitting and estimation of Affinity. All of the samples had faster off rates than the parental clone and control Mab. The difference in off rate was the primary contributor to the lower affinity of the HFA variants when compared to the parent antibody.

[7] = target: T2, cynomolgus (Macaca fascicularis) ST2L …; test: ProteOn SPR, mAb captured, ST2L-ECD in solution
Procedure: as §1, §2

[8] = target: T1, human ST2L extracellular domain with …; test: Fab binding to ST2L, method not detailed; parent C2494 Fab, without the D101aA substitution
[9] = target: T1, human ST2L extracellular domain with …; test: Fab binding to ST2L, method not detailed
[10] = target: T1, human ST2L extracellular domain with …; test: immunosorbent assay with ECL detection, human-mouse domain-swap constructs
Procedure: (§3) Antibody binding to ST2L domain I, II and III was determined using standard capture ELISA assay using electrochemiluminescent detection format (Meso-Scale Discovery (MSD) technology). 10 μg/mL of each antibody was coated onto each well of an MSD HighBind plate (5 μL/well) for 2 hr at room temperature. […] The plate was covered with aluminum foil and incubated for 1 hr at room temperature with gentle shaking. The plate was then washed 3 times with HEPES wash buffer. MSD read buffer (150 μl) was added to each well, and the plate was then read using an MSD Sector Imager 6000.

[11] = target: T4, mouse ST2L extracellular domain; test: as above
Procedure: as §3

[12] = target: T4, mouse ST2L extracellular domain; test: domain binding assay
Procedure: as §3

[13] = target: T1, human ST2L extracellular domain with …; test: assayed for binding to human ST2L, method not detailed

Binder | Kd [1] | koff [1] | kon [1] | Kd [2] | koff [2] | kon [2] | further results
B1 | 0.028 nM | 0.000119 s⁻¹ | 4.26e+06 M⁻¹ s⁻¹ | 0.012 nM | 0.000539 s⁻¹ | 4.51e+07 M⁻¹ s⁻¹ | RGA IC50 [3]: 0.11 µg/mL; IC50 (read off the curve) [4]: ~100 nM; IC50 [5]: 0.7 µg/mL; Kd [6]: 0.00867 nM; koff [6]: 0.000159 s⁻¹; kon [6]: 1.84e+07 M⁻¹ s⁻¹; Kd [7]: 0.0123 nM; koff [7]: 0.000457 s⁻¹; kon [7]: 3.84e+07 M⁻¹ s⁻¹
B2 |  |  |  |  |  |  | koff [8]: 0.000143 s⁻¹
B3 |  |  |  |  |  |  | fold decrease of koff against C2494 [9]: ~4 fold
B4 | 0.042 nM | 4.25e-05 s⁻¹ | 1.02e+06 M⁻¹ s⁻¹ | 0.011 nM | 5.3e-05 s⁻¹ | 4.81e+06 M⁻¹ s⁻¹ | IC50 (read off the curve) [4]: ~90 nM
B5 |  |  |  |  |  |  | binding result [10]: no binding; binding result [11]: binds
B6 | 0.101 nM | 0.000161 s⁻¹ | 1.59e+06 M⁻¹ s⁻¹ | 0.266 nM | 0.0124 s⁻¹ | 4.66e+07 M⁻¹ s⁻¹ | binding result [12]: binds
B7 |  |  |  |  |  |  | binding result [13]: binds
B8 | 0.038 nM | 4.87e-05 s⁻¹ | 1.29e+06 M⁻¹ s⁻¹ | 0.076 nM | 0.00336 s⁻¹ | 4.42e+07 M⁻¹ s⁻¹ | binding result [12]: binds
